Data published in US20220204643A1 (published 2022).
Values belong to the binder of their own block, whether it stands above or below them.

What was measured:
[1] = target: T1, glyoxylate and hydroxypyruvate reductase (human, UniProt Q9UBQ7 1-328)
T1 construct: also called GRHPR
T1 sequence: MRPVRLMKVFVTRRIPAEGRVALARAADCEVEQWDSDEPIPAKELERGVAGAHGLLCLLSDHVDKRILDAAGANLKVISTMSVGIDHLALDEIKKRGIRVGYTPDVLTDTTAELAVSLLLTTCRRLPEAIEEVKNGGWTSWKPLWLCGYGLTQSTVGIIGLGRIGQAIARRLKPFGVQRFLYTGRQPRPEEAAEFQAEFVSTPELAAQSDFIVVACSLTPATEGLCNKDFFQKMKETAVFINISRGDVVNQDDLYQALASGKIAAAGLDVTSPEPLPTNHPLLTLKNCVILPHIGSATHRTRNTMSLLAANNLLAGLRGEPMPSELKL

[2] = target: T2, programmed cell death 1 (human, UniProt Q15116 25-288, limits assumed)
T2 construct: also called PDCD1

[3] = target: T3, HAUS augmin like complex subunit 1, transcript variant 1 (human, UniProt Q96CS2 1-278)
T3 construct: also called HAUS1
T3 sequence: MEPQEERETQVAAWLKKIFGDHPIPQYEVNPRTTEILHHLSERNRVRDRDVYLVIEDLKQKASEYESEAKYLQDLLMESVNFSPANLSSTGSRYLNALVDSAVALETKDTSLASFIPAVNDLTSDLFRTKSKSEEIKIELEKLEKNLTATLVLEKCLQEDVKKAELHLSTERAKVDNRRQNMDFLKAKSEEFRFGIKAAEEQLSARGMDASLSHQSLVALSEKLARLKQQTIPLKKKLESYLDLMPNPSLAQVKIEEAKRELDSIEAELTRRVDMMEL

[4] = target: T4, NFKB inhibitor beta, transcript variant 1 (human, UniProt Q15653 1-356)
T4 construct: also called NFKBIB
T4 sequence: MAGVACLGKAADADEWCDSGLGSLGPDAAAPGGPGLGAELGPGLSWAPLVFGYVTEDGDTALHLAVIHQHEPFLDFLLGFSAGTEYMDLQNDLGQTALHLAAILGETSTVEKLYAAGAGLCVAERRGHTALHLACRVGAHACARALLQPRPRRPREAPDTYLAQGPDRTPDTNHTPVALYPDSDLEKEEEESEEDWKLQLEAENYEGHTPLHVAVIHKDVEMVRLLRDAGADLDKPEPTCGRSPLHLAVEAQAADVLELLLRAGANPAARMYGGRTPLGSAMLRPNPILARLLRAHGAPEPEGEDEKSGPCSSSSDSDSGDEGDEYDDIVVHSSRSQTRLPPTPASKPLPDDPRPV

[5] = target: T5, cyclin dependent kinase 2 associated protein 2, transcript variant 1 (human, UniProt O75956 1-126)
T5 construct: also called CDK2AP2
T5 sequence: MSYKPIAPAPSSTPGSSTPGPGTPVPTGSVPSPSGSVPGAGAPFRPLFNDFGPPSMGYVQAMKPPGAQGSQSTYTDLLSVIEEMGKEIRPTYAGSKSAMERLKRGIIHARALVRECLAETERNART

[6] = target: BCL2 apoptosis regulator, transcript variant alpha (human, UniProt P10415 1-239)
[7] = target: T6, calcium and integrin binding 1, transcript variant b (human, UniProt Q99828 2-191)
T6 construct: also called CIB1
T6 sequence: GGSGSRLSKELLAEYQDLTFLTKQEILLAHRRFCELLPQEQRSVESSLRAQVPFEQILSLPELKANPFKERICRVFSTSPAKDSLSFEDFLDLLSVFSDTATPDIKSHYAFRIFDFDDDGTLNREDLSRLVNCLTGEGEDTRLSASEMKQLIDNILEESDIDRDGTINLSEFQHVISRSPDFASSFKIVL

[8] = target: T7, Transforming growth factor beta 3 (human, UniProt P10600 24-412)
T7 construct: also called TGFB3
T7 sequence: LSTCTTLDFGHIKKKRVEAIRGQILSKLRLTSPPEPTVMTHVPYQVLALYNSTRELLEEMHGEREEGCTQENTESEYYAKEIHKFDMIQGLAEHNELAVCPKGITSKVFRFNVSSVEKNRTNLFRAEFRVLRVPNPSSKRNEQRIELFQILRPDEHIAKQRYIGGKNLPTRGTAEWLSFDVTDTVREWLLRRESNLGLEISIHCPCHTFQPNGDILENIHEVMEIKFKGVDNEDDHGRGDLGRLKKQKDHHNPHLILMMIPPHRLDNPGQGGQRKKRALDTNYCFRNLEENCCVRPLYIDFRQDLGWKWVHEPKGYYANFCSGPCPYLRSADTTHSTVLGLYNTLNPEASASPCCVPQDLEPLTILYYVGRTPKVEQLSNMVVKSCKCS

[9] = target: T8, chymotrypsinogen B2 (human, UniProt Q6GPI1 19-263, limits assumed)
T8 construct: also called CTRB2

[10] = target: T9, phosphoglucomutase 2 like 1 (human, UniProt Q6PCE3 1-622 at identity 1.00), limits assumed)
T9 construct: also called PGM2L1
T9 sequence: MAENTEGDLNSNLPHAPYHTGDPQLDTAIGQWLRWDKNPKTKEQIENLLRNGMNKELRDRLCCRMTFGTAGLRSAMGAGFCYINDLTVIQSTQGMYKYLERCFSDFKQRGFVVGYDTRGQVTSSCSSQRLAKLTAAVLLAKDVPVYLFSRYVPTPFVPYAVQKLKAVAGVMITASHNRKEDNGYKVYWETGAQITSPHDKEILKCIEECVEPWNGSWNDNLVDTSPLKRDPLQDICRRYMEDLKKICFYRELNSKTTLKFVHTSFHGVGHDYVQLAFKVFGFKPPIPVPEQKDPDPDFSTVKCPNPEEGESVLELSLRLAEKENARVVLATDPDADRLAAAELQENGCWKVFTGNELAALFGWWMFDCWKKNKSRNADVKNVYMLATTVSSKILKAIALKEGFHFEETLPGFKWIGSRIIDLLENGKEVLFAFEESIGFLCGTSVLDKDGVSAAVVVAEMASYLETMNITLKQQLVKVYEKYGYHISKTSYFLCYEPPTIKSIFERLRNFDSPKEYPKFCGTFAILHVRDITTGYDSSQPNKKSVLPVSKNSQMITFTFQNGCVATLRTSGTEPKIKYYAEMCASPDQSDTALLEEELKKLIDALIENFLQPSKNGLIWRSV

[11] = target: T10, transforming growth factor beta induced (human, UniProt Q15582 24-683, limits assumed)
T10 construct: also called TGFBI
T10 sequence: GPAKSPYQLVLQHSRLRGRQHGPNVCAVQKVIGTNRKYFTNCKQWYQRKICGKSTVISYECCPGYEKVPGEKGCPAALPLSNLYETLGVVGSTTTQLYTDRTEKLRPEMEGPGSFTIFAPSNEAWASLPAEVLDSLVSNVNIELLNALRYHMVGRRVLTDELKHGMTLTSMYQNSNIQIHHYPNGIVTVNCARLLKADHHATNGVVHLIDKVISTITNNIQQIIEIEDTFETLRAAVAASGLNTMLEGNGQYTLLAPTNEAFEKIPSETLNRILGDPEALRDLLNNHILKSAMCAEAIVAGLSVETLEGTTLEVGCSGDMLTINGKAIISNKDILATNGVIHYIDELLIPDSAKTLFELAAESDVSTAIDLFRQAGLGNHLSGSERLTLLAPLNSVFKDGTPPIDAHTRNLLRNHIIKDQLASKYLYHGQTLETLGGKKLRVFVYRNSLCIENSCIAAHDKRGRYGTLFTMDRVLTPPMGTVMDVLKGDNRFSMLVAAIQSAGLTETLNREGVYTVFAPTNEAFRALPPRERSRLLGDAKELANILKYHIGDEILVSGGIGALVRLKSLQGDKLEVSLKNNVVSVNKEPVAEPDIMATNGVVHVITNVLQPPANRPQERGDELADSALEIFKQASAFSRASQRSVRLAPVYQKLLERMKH

T8 sequence (Q6GPI1 19-263 limits assumed): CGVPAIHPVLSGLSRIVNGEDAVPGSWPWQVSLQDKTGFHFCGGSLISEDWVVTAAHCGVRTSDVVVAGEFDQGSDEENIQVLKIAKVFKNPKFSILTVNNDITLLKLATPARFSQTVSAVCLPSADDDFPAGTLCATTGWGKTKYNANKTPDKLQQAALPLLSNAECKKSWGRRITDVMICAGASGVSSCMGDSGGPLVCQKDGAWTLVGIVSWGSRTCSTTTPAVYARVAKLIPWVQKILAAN
T2 sequence (Q15116 25-288 limits assumed): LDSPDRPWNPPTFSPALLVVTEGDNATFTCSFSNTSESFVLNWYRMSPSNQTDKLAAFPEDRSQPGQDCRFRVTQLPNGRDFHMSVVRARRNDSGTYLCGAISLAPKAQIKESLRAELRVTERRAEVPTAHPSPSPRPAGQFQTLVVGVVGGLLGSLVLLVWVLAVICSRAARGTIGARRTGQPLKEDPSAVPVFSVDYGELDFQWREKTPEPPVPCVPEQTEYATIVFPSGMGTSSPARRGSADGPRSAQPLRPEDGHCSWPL
BCL2 apoptosis regulator, transcript variant alpha, sequence (P10415 whole entry, change not shown): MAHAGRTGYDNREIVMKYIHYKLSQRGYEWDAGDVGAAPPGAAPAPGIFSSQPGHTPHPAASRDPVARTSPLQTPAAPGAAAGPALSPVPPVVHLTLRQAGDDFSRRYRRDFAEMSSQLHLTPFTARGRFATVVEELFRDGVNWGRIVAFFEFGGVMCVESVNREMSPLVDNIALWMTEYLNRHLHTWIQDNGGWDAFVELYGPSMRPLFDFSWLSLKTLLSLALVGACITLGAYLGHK

B1: TTES1004 (antibody, V domains shown)
VH: EVQLVESGGGLVQPGGSLRLSCVASGFTFSSYSMNWVRQAPGKGLKWVSYISSSRSTIYNADSVKGRFTISRDNAKKSLYLQMNSLRAEDTAVYYCARVSVAAPTCLDYWGQGTLVTVSS
VL: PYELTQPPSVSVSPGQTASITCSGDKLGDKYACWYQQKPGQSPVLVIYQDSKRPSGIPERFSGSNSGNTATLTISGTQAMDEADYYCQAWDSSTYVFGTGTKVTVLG
binding result [1]: binds

B2: TTES1003 (antibody, V domains shown)
VH: VVQLVESGGGLVQPGGSLRLSCSASGFTFSSYAMHWVRQAPGKGLEYVSAISSNGGSTYYADSVKGRFTISRDNSKNTLYLQMSSLRAEDTAVYYCVKSPVAANDAFDIWGQGTMVTVSS
VL: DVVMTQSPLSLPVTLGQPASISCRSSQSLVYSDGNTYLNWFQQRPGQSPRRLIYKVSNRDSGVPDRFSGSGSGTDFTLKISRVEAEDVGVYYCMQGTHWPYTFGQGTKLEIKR
binding result [2]: binds

B4: TSTO1005 (antibody, V domains shown)
VH: EVQLVESGGGVVQPGGSLRLSCAASGFTFEDFGMHWVRQAPGKGLEWVAFTRFDGSEKYYVDSVKGRFTVSRDNSKNTLFLHMNSLRPEDTAVYYCAKTRSYSSADTTRPNAPGYWGQGTLVTVSS
VL: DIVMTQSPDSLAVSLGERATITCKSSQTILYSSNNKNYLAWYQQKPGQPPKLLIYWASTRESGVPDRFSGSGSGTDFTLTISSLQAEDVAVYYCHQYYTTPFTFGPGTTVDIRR
binding result [4]: binds | binding result [5]: binds

B6: TSTO1001 (antibody, V domains shown)
VH: VVQLLESGGGLVHPGGSLRISCAASEFTFSAYAMTWVRQAPGKGLEWVSAISGSGGRTYYADSLKGRFTISRDNSKHTLYLLMNSLRVEDTAVYYCASRYRSPSGAFDIWGQGTLVTVSS
VL: EIVMTQSPATLSVSQGERATLSCRASQSVGSDLAWYQQKPGQAPRLLIYDASARATDIPARFSGSGSETEFTLTISSLQSEDFAVYYCQHYSDWRALTFGGGTKVEIKR
binding result [7]: binds

B7: TSTO1003 (antibody, V domains shown)
VH: QVQLKQSGGGVVQPGRSLTLSCVASGLTFSDYGMHWVRQAPGKGLEWVAVIWHDGSKTNYADSVKGRIIISRDNSKSTVYLQMNRLRGEDTAVYYCATSHGGLVPGGENYWGQGTLVTVSS
VL: SDELTQPPSVSVSPGQTARITCSGDALAKEYAYWYQQKSGQAPVLVISKDTERPSGIPARFSGSSSGTTVTLTISGVQSDDEADYYCQSADSSLTYWLFGGGTKLTVLR
binding result [8]: binds

B9: TTES1002 (antibody, V domains shown)
VH: QVQLQESGPGLVKPSETLSLICTVSGASVNSGTHFWSWIRQPPGKGLEWIGYVYYSGNTNYNPSLKSRVAISVDTSKNQFSLKLTSVTSADTAVYYCARDFDDGYDIRYWGQGTRVSVSS
VL: QSALTQPASVSGSPGQSITISCTGSSNDIGRYKYVSWFQHHPGRAPKLIIYEVNNRPSGLSHRFSGSKSGNTASLTISGLQAEDEADYYCCSYTSSLTYVFGTGTAVTVL
binding result [10]: binds

B10: TSTO1008 (antibody, V domains shown)
VH: AVQLVQSGAEVKKPGESLRISCKGSGYSFSTYWIIWVRQMPGKGLEWIGRFDPSDSYNVNSPSFQGHVTISADTSINTAYLQWSSLKASDSAMYYCARRSDKAVPGTFDQWGQGTLVTVSS
VL: RSVLTQPPSVSAAPGQKVIISCSGSSSNIGNNYVSWYQQFLGTAPKLLIYDTDKRPSGIPDRFSGSKSGTSATLGITGLQTGDEAHYYCATWDSSLRAGPVVFGGGTKLTVLG
binding result [11]: binds

Continued, values first:

binding result [3]: binds
B3: TSTO1002 (antibody, V domains shown)
VH: EVQLVESGGGLVKPGGSLRLSCAASGFTFSNAWMNWVRQTPGKGLEWVGRIKTKTDGGTTDYAEPVKGRFTISRDDSKNTLYLQMNSLKTEDTAVYYCTRGAVADYWGQGTQVTVSS
VL: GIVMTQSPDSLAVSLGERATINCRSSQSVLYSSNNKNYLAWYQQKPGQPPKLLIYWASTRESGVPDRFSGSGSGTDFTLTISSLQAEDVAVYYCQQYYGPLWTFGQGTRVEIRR

binding result [6]: binds
B5: TSTO1010 (antibody, V domains shown)
VH: EVQLVESGGGLVKPRGSLRLSCAASGFTFSAYGMNWVRQAPGKGLEWVSSISGDSRDIYYGASMKGRFTISRDNAKSSLYLQMNSLRAEDTAVYYCARGEGGELWAFDYWGLGVLVTVSS
VL: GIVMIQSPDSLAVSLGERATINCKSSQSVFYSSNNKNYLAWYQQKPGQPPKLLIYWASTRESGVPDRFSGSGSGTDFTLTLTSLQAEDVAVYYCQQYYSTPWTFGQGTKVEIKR

binding result [9]: binds
B8: TSTO1004 (antibody, V domains shown)
VH: QVQLVQSGSELKKPGASVKVSCTSSGYVFTSFGVSWVRQVPGQGPEWMGWISPYTRQTKYAQSLQGRITLTADTSTNTTYMELRSLRSDDTAMYYCVREEFGVVRGPNPFDVWGQGTMVTVSS
VL: DIQMTQAPSTLSASVGDRVSITCRASQNIRDFLAWYQQKPGRAPDLLIYRASTLEKGVSARFSGSGSGTEFTLTITGLQPDDFATYYCQQYSDYSTFGGGTRVEIK
